From a protein production outcome set (Wang et al. 2014)

Assay: label from the status in PepcDB records

Sequence	protein production
MHFRDTSERQSDAVNESSLDSVHLQMIKGMLYQQRQDFSSQDSVSRKKVLSLNLKQTSKTEEIKNVLGGSTCYNYSVKDLQEISGSELCFPSGQKIKSAYLPQRQIHIPAVFQSPAHYKQTFTSCLIEHLNILLFGLAQNLQKALSKVDISFYTSLKGEKLKNAENNVPSCHHSQPAKLVMVKKEGPNKGRLFYTCDGPKADRCKFFKWLEDVTPGYSTQEGARPGMVLSDIKSIGLYLRSQKIPLYEECQLLVRKGFDFQRKQYGKLKKFTTVNPEFYNEPKTKLYLKLSRKERSSAYSKNDLWVVSKTLDFELDTFIACSAFFGPSSINEIEILPLKGYFPSNWPTNMVVHALLVCNASTELTTLKNIQDYFNPATLPLTQYLLTTSSPTIVSNKRVSKRKFIPPAFTNVSTKFELLSLGATLKLASELIQVHKLNKDQATALIQIAQMMASHESIEEVKELQTHTFPITIIHGVFGAGKSYLLAVVILFFVQLFEKSEAPTIGNARPWKLLISSSTNVAVDRVLLGLLSLGFENFIRVGSVRKIAKPILPYSLHAGSENESEQLKELHALMKEDLTPTERVYVRKSIEQHKLGTNRTLLKQVRVVGVTCAACPFPCMNDLKFPVVVLDECSQITEPASLLPIARFECEKLILVGDPKQLPPTIQGSDAAHENGLEQTLFDRLCLMGHKPILLRTQYRCHPAISAIANDLFYKGALMNGVTEIERSPLLEWLPTLCFYNVKGLEQIERDNSFHNVAEATFTLKLIQSLIASGIAGSMIGVITLYKSQMYKLCHLLSAVDFHHPDIKTVQVSTVDAFQGAEKEIIILSCVRTRQVGFIDSEKRMNVALTRGKRHLLIVGNLACLRKNQLWGRVIQHCEGREDGLQHANQYEPQLNHLLKDYFEKQVEEKQKKKSEKEKSKDKSHS	failed
MHIAIIGDQAATRQATTQLLSQLTTPTQPLQVTAYPTAEAFLFADQPADLLLLDIKLGSGMDGMTLAKQIREHDAATAIAFVSNYDEFVFDGYDVNALDYVIKPITSDKLQHLISKVAAQTQPKLLVFTTANGIQRVAMYDISAIEVTDHRLQVHTQKMTYTVAGQLKEFLPQLDENFIQIYRSIVINLNFLSQLEKNTVVMADGTSYPVSRQQAPLVKQAFFKHFRGLAHDSELEHHHHHH	failed
MHIKSAIIVVSDRISTGTRENKALPLLQRLMSDELQDYSYELISEVVVPEGYDTVVEAIATALKQGARFIITAGGTGIRAKNQTPEATASFIHTRCEGLEQQILIHGSTHTHLAGLSRGIVGVTGRDDHAALIVNAPSSSGGITDTWAVISPVIPNIFEGLDAS	not failed
MHKEIAKELLLLAGGKNNIISISHCTTRLRFDVKDETKIDIHAIENLQGVQGTFFRYGLFQIIFGAGVVNKIYKEVVHVWETAPSEEPVHQKKASRKLNPAAAFAKTLSDI	failed
MHLKNNQTLANGATVTIYPTTTEPTNYVVYLHGGGMIYGTKSDLPEELKELFTSNGYTVLALDYLLAPNTKIDHILRTLTETFQLLNEEIIQNQSFGLCGRSAGGYLMLQLTKQLQTLNLTPQFLVNFYGYTDLEFIKEPRKLLKQAISAKEIAAIDQTKPVWDDPFLSRYLLYHYSIQQALLPHFYGLPENGDWSAYALSDETLKTFPPCFSTASSSDEEVPFRYSKKIGRTIPESTFKAVYYLEHDFLKQTKDPSVITLFEQLDSWLKER	not failed
MHLLQAVSYRYLILAVIGLPEKYRKPQALACHHRRTAMNRLSAFALAAAIGIAAAPVAQAGELWRATGLEQPESALFDAANNRIIVSNIVGNPGEADGNGYLSVLSLDGKTITQHWTDGMDAPKGMAISGGKLYVADITKVRVVDLASGKLIASIVVPNAVFLNDMTSDHTGKVYVSDMLADTIYRIDGDRPELFVRDALLASPNGVFADGDRLIVASWGKGIKPDFSTAEPGGLLAVDLASKAVSPLPGAQKFADLDGVIAIGDTIYATAYMTGTLYRYKAGGAPEAVAHFKPGSADIGTDGKSILYVPLMNEGEVAALKLD	failed
MHLQKLKNIVWTKRIGHLFERVTDIENIKRAIKRAAKRKTHRPSVQRILNDIDSYARKIQEMLVNETFVPAKYTIREIYDGIKKKKRVIAVPRFYPDQCIHHAFVQVFREIVEHGADKFSCGCVPGKGTDGARKMIKHWIKSDPIGTSKVLKLDVHHCYPTMNHEALRQKLEKKIKDRKLLNLAFKLIASYQQPMADHTRMLPEVDAVGIPVGLYTSPWFCNFFFQDIDHMIAEKTGAKHHTRYVDDIVLFDSNKRRLHKALRMIADELRKVKMQVKANWQVFPLKDRPLDFLGYKFHAGAWTTLRKSIMFRISHKAKKISKISYISPTNASGMISYMGFIYNSDSWNFWKERVKPFINLKLLKGVVSNENRKQHQAACAA	failed
MHLRDRPGFGPGGPFRFRALPRAADKGTMMFKKILIANRGEIACRVIKTARKMGIQTVAVYSDADRNALHVSMADEAIHIGPPPANQSYIVIDKIMEAIKASGAEAVHPGYGFLSERMDFAAALEAAGVVFIGPPSGAIEAMGDKITSKKLAKEAGVSTVPGYMGLIADADEAVKISNEIGYPVMIKASAGGGGKGMRIAWSEAEVKEGFESSKNEAANSFGDDRIFIEKFVTQPRHIEIQVLADKHGNCVYLHERECSIQRRNQKVIEEAPSPFLDEATRKAMGEQACALAKAVGYASAGTVEFIVDGQKNFYFLEMNTRLQVEHPVTELITGIDLVEQMIRVAAGEKLPFQQSDLKINGWAMESRLYAEDPYRNFLPSIGRLTRYRPPVESVTPTSVVRNDTGVYEGGEISMYYDPMIAKLCTWAPTREAAIEEMRLALDTFEVEGIGHNLPFVGAVMDHPRFVKGDITTAFIAEEYPDGFQGAVLDEPTLRRVAAAAAAMNRVAEIRRTRISGTMNNHERHVGVDWVVALQGESYHVSIAADREGSTVSFSDGSSLRVTSDWTPGQPLASLMVDGRPLVMKVGKIPMGFRLRLRGADLKVNVRTPRQAELALLMPEKLPPDTSKYLLCPMPGLVVKINVAEGDEVQEGQALATVEAMKMENILRAERRGTVKKIAAAPGASLRVDDVIMEFE	failed
MHLSAYLLLVASLLFALFFAGTAAIQIWQGRTTALPWMEKGHLMLTAFMSVASAVLLHALANFDFSLVYVASYTDRALPLFYRLTAFWAGQAGSMLFWGWSVALFGVFFLFSPVYRRVSEPTRMWFWLLFLAMMGFFLLVLTCWSNPFTVVDPAPADGNGLNPLLQNPGMIFHPPLLFLGYGGFAIPGCLALAQSLSGMRLSEGAWADHARPFTLVAWLFLTAGIVLGGWWAYMELGWGGYWAWDPVENASLIPWLIASAYLHTAVIEARRNKLHRVNTFLMALTTISAFFATYLVRSGVVESLHAFGDGGVGTPLLIFIIVFTAVALGGSILWKHPDAKPLSGVESREGFLVMVAWVLLALGAIILVATMWPVFSKFWVDKPVGLEPAFYNRVCLPLFAVLVVMLAICPWLGWKGGLRNKVGAVTALGLFVGAAGGIWAAGYTIPTAVLGAAGAIAALGGIVMLLATEPHLRRSPQSLAAYGVHIGLALTALGVAFSGPYKTEHEVIMQQGDTVQVAGYDVTFKALYEGEGPGYIFIEAELDVKKNGSDVGMAQPQRRIYSKFGKQAFAEASTIPGLGNEFYAVLLGVDREGKATLHLNVTPLINWVWIGSIIMCLFPFIGMRRRKTAEA	failed
MHLSLMISRHYINRMKLSLMHISILAGIPEEFKVNIYIGWLFKLIPLIMGLICIALGGFVLESSGQSEYFVAGHVLISLAAICLALFTTAFIIISQLTRGVNTFYNTLFPIIGYAGSIITMIWGWALLAGNDVMADEFVAGHVIFGVGMIAACVSTVAASSGHFLLIPKNAAGSKSDGTPVQAYSSLIGNCLIAVPVLLTLLGFIWSITLLRSADITPHYVAGHVLLGLTAICACLIGLVATIVHQTRNTFSTKEHWLWCYWVIFLGSITVLQGIYVLVSSDASARLAPGIILICLGMICYSIFSKVWLLALVWRRTCSLANRIPMIPVFTCLFCLFLASFLAEMAQTDMGYFIPSRVLVGLGAVCFTLFSIVSILEAGSAKK	failed
MHLTKTWLAQLPLTDIQQVQPVSGGDINAAFQIITRHHQYFLKVQPHNDVTFFDHEVAGLRLLGAVTKTPRVIASGTIATDGYLLLDWLATGTGSQSALGAAVAKVHHQHHAQFGLDHDFTAGKLPKINHWQTDWATFYTQQRLDVLVNLAKEHHLWSETREMHYHRLRQQLLQDSHMHTVKPSLLHGDLWSGNYLFDTTGTPVLIDPDVFYGDREMDLAMTTIFGGFDTDFYQAYQAAYPVAPGMQDRLPSYQLYYLLAHLNLFGETYGPAVDRILMQY	failed
MHNFEEELTCPICYSIFEDPRVLPCSHTFCRNCLENILQASGNFYIWRPLRIPLKCPNCRSITEIAPTGIESLPVNFALRAIIEKYQQEDHPDIVTCPEHYRQPLNVYCLLDKKLVCGHCLTIGQHHGHPIDDLQSAYLKEKDTPQKLLEQLTDTHWTDLTHLIEKPKEQKSHSEKMIQGDKEAVLQYFKELNDTLEQKKKSFLTALCDVGNLINQEYTPQIERMKEIREQQLELMALTISLQEESPLKFLEKVDDVRQHVQILKQRPLPEVQPVEIYPRVSKILKEEWSRTEIGQIKNVLIPKMKISPKRMSCSWPGTPVYSVAWGPDSEKVLYTAGKQLIIKPLQPNAKVLQWKAHDGIILKVDWNSVNDLILSAGEDCKYKVWDSYGRPLYNSQPHEHPITSVAWAPDGELFAVGSFHTLRLCDKTGWSYALEKPNTGSIFNIAWSIDGTQIAGACGNGHVVFAHVVEQHWEWKNFQVTLTKRRAMQVRNVLNDAVDLLEFRDRVIKASLNYAHLVVSTSLQCYVFSTKNWNTPIIFDLKEGTVSLILQAERHFLLVDGSSIYLYSYEGRFISSPKFPGMRTDILNAQTVSLSNDTIAIRDKADEKIIFLFEASTGKPLGDGKFLSHKNEILEIALDQKGLTNDRKIAFIDKNRDLCITSVKRFGKEEQIIKLGTMVHTLAWNDTCNILCGLQDTRFIVWYYPNTVYVDRDILPKTLYERDASEFSKNPHIVSFVGNQVTIRRADGSLVHISITPYPAILHEYVSSSKWEDAVRLCRFVKEQTMWACLAAMAVANRDMTTAEVAYAAIGEIDKVQYINSIKNLPSKESKMAHILLFSGNIQEAEIVLLQAGLVYQAIQININLYNWERALELAVKYKTHVDTVLAYRQKFLETFGKQETNKRYLHYAEGLQIDWEKIKAKIEMEITKEREQSSSSQSSKSIGLKP	failed
MHPALVLAAIALIAIKLDPRFVLGLLVLLTLIYGKKRGFSLKLRNVTEDESYFNAFLFSTILSALSCFSLPKDVVFASIFLISVHNYRKNALWNIAVYTTASLLYFLCYHAVNGVELRLAHTFFISLSGGLTAALVESVDTNADRRLTLLLAISSVFTIFKMYVPSASIYSLAFAFLLSFFVSLLALYAKVADESGLMSATIVGTTLILFADIRFFAVILLFYALGSAITKYKYSVKLERGIAEQAGGARGYANVFGNSLAPLFFAVQFGVSGDAIFAAAFVAAVAAALADTMASEIGKAEEKVYLITNFSRVEPGTSGGISVKGEFAALFGCIVTALLSLLLGIIGFDVLLPVTLSAFAGVHIDSLLGATLEKKGYLTNSAVNFLGTLSAGIICVLLLLPLL	failed
MHQQIIKFWFEELTPQNWFENNPELDKHIASRFASVLEQAARCELFNWRDSAQGRLAEIIVLDQFSRNVYRNTPKAFAQDPLALALAQEAIRLGHDQELAPEQLSFLYMPFMHSESRLIHVEAEKLFRASGLENNYDFELKHKAIIDQFGRYPHRNAILGRESTPEELAFLQQPGSSF	not failed
MHRTTRIKITELNPHLMCVLCGGYFIDATTIIECLHSFCKTCIVRYLETSKYCPICDVQVHKTRPLLNIRSDKTLQDIVYKLVPGLFKNEMKRRRDFYAAHPSADAANGSNEDRGEVADEDKRIITDDEIISLSIEFFDQNRLDRKVNKDKEKSKEEVNDKRYLRCPAAMTVMHLRKFLRSKMDIPNTFQIDVMYEEEPLKDYYTLMDIAYIYTWRRNGPLPLKYRVRPTCKRMKISHQRDGLTNAGELESDSGSDKANSPAGGVPSTSSCLPSPSTPVQSPHPQFPHISSTMNGTSNSPSGNHQSSFANRPRKSSVNGSSATSSG	failed
